Reference: the supplement of paper PMC5998384

How the values were obtained:
HeLa Kyoto [1] = assay: solubility in G1/S (NP-40 vs SDS abundance) (log2 ratio); higher = more soluble; conditions: cell cycle stage: G1/S
HeLa Kyoto [2] = assay: melting temperature (median over replicates), in situ; higher = more thermally stable
HeLa Kyoto [3] = assay: solubility change mitosis vs G1/S (difference of NP-40 vs SDS log2 ratios) (log2 ratio difference); higher = more soluble in mitosis
HeLa Kyoto [4] = assay: thermal stability score vs G1/S (z-score of summed log2 fold changes over temperatures); higher = more thermally stable than in G1/S
[5] = cell cycle stage: early G1 (4.5 h after nocodazole release)
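Wherever melting temperature (median over replicates), in situ is given: HeLa Kyoto cells synchronized by double thymidine or nocodazole block, proteins quantified by TMT10plex mass spectrometry, three independent biological replicates.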
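Wherever solubility change mitosis vs G1/S (difference of NP-40 vs SDS log2 ratios) is given: synchronized HeLa Kyoto cells (double thymidine block for G1/S, nocodazole release for mitosis), protein amounts in NP-40 versus SDS lysates quantified by mass spectrometry, three biological replicates.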
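Wherever solubility in G1/S (NP-40 vs SDS abundance) is given: HeLa Kyoto cells arrested at G1/S by double thymidine block, proteins quantified by TMT10plex mass spectrometry in mild NP-40 versus SDS extracts, three biological replicates.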
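Wherever thermal stability score vs G1/S (z-score of summed log2 fold changes over temperatures) is given: synchronized HeLa Kyoto cells, proteins quantified by TMT10plex mass spectrometry, three biological replicates, mitosis taken 0.5 h after nocodazole release, G1/S directly after double thymidine block.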

Substance: METVISSDSSPAVENEHPQETPESNNSVYTSFMKSHRCYDLIPTSSKLVVFDTSLQVKKAFFALVTNGVRAAPLWDSKKQSFVGMLTITDFINILHRYYKSALVQIYELEEHKIETWREVYLQDSFKPLVCISPNASLFDAVSSLIRNKIHRLPVIDPESGNTLYILTHKRILKFLKLFITEFPKPEFMSKSLEELQIGTYANIAMVRTTTPVYVALGIFVQHRVSALPVVDEKGRVVDIYSKFDVINLAAEKTYNNLDVSVTKALQHRSHYFEGVLKCYLHETLETIINRLVEAEVHRLVVVDENDVVKGIVSLSDILQALVLTGGEKKP [PRKAG1]
- solubility in G1/S (log2) (HeLa Kyoto [1]): 0.164
- melting temperature (HeLa Kyoto [2]; cell cycle stage: G1/S): 50.7 °C
- melting temperature (HeLa Kyoto [2]; cell cycle stage: mitosis): 51.2 °C
- solubility change mitosis (log2) (HeLa Kyoto [3]): -0.127
- thermal stability score (HeLa Kyoto [4]; [5]): 0.779
- thermal stability score (HeLa Kyoto [4]; cell cycle stage: mitosis): 1.52

Substance: MYO5A
- solubility in G1/S (log2) (HeLa Kyoto [1]): -0.679
- melting temperature (HeLa Kyoto [2]; cell cycle stage: G1/S): 51.1 °C
- melting temperature (HeLa Kyoto [2]; cell cycle stage: mitosis): 49.6 °C
- solubility change mitosis (log2) (HeLa Kyoto [3]): 0.167
- thermal stability score (HeLa Kyoto [4]; [5]): 0.0646
- thermal stability score (HeLa Kyoto [4]; cell cycle stage: mitosis): -0.152

Substance: MARCERLRGAALRDVLGRAQGVLFDCDGVLWNGERAVPGAPELLERLARAGKAALFVSNNSRRARPELALRFARLGFGGLRAEQLFSSALCAARLLRQRLPGPPDAPGAVFVLGGEGLRAELRAAGLRLAGDPSAGDGAAPRVRAVLVGYDEHFSFAKLREACAHLRDPECLLVATDRDPWHPLSDGSRTPGTGSLAAAVETASGRQALVVGKPSPYMFECITENFSIDPARTLMVGDRLETDILFGHRCGMTTVLTLTGVSRLEEAQAYLAAGQHDLVPHYYVESIADLTEGLED [PDXP]
- solubility in G1/S (log2) (HeLa Kyoto [1]): 0.126
- melting temperature (HeLa Kyoto [2]; cell cycle stage: G1/S): 56.7 °C
- melting temperature (HeLa Kyoto [2]; cell cycle stage: mitosis): 57.5 °C
- solubility change mitosis (log2) (HeLa Kyoto [3]): -0.126
- thermal stability score (HeLa Kyoto [4]; [5]): -2.14
- thermal stability score (HeLa Kyoto [4]; cell cycle stage: mitosis): -1.83

Substance: MAPKGSSKQQSEEDLLLQDFSRNLSAKSSALFFGNAFIVSAIPIWLYWRIWHMDLIQSAVLYSVMTLVSTYLVAFAYKNVKFVLKHKVAQKREDAVSKEVTRKLSEADNRKMSRKEKDERILWKKNEVADYEATTFSIFYNNTLFLVVVIVASFFILKNFNPTVNYILSISASSGLIALLSTGSK [SSR3]
- solubility in G1/S (log2) (HeLa Kyoto [1]): -0.131
- melting temperature (HeLa Kyoto [2]; cell cycle stage: G1/S): 57.8 °C
- melting temperature (HeLa Kyoto [2]; cell cycle stage: mitosis): 57.2 °C
- solubility change mitosis (log2) (HeLa Kyoto [3]): 0.126
- thermal stability score (HeLa Kyoto [4]; [5]): 1.59
- thermal stability score (HeLa Kyoto [4]; cell cycle stage: mitosis): -0.0489

Substance: MSLLFSRCNSIVTVKKNKRHMAEVNASPLKHFVTAKKKINGIFEQLGAYIQESATFLEDTYRNAELDPVTTEEQVLDVKGYLSKVRGISEVLARRHMKVAFFGRTSNGKSTVINAMLWDKVLPSGIGHTTNCFLRVEGTDGHEAFLLTEGSEEKRSAKTVNQLAHALHQDKQLHAGSLVSVMWPNSKCPLLKDDLVLMDSPGIDVTTELDSWIDKFCLDADVFVLVANSESTLMQTEKHFFHKVSERLSRPNIFILNNRWDASASEPEYMEEVRRQHMERCTSFLVDELGVVDRSQAGDRIFFVSAKEVLNARIQKAQGMPEGGGALAEGFQVRMFEFQNFERRFEECISQSAVKTKFEQHTVRAKQIAEAVRLIMDSLHMAAREQQVYCEEMREERQDRLKFIDKQLELLAQDYKLRIKQITEEVERQVSTAMAEEIRRLSVLVDDYQMDFHPSPVVLKVYKNELHRHIEEGLGRNMSDRCSTAITNSLQTMQQDMIDGLKPLLPVSVRSQIDMLVPRQCFSLNYDLNCDKLCADFQEDIEFHFSLGWTMLVNRFLGPKNSRRALMGYNDQVQRPIPLTPANPSMPPLPQGSLTQEEFMVSMVTGLASLTSRTSMGILVVGGVVWKAVGWRLIALSFGLYGLLYVYERLTWTTKAKERAFKRQFVEHASEKLQLVISYTGSNCSHQVQQELSGTFAHLCQQVDVTRENLEQEIAAMNKKIEVLDSLQSKAKLLRNKAGWLDSELNMFTHQYLQPSR [MFN2]
- solubility in G1/S (log2) (HeLa Kyoto [1]): -0.174
- melting temperature (HeLa Kyoto [2]; cell cycle stage: G1/S): 50.8 °C
- melting temperature (HeLa Kyoto [2]; cell cycle stage: mitosis): 51.3 °C
- solubility change mitosis (log2) (HeLa Kyoto [3]): -0.043
- thermal stability score (HeLa Kyoto [4]; [5]): 1.32
- thermal stability score (HeLa Kyoto [4]; cell cycle stage: mitosis): 0.83

Substance: MLPARLPFRLLSLFLRGSAPTAARHGLREPLLERRCAAASSFQHSSSLGRELPYDPVDTEGFGEGGDMQERFLFPEYILDPEPQPTREKQLQELQQQQEEEERQRQQRREERRQQNLRARSREHPVVGHPDPALPPSGVNCSGCGAELHCQDAGVPGYLPREKFLRTAEADGGLARTVCQRCWLLSHHRRALRLQVSREQYLELVSAALRRPGPSLVLYMVDLLDLPDALLPDLPALVGPKQLIVLGNKVDLLPQDAPGYRQRLRERLWEDCARAGLLLAPGHQGPQRPVKDEPQDGENPNPPNWSRTVVRDVRLISAKTGYGVEELISALQRSWRYRGDVYLVGATNAGKSTLFNTLLESDYCTAKGSEAIDRATISPWPGTTLNLLKFPICNPTPYRMFKRHQRLKKDSTQAEEDLSEQEQNQLNVLKKHGYVVGRVGRTFLYSEEQKDNIPFEFDADSLAFDMENDPVMGTHKSTKQVELTAQDVKDAHWFYDTPGITKENCILNLLTEKEVNIVLPTQSIVPRTFVLKPGMVLFLGAIGRIDFLQGNQSAWFTVVASNILPVHITSLDRADALYQKHAGHTLLQIPMGGKERMAGFPPLVAEDIMLKEGLGASEAVADIKFSSAGWVSVTPNFKDRLHLRGYTPEGTVLTVRPPLLPYIVNIKGQRIKKSVAYKTKKPPSLMYNVRKKKGKINV [NOA1]
- solubility in G1/S (log2) (HeLa Kyoto [1]): 0.131
- melting temperature (HeLa Kyoto [2]; cell cycle stage: G1/S): 49.8 °C
- melting temperature (HeLa Kyoto [2]; cell cycle stage: mitosis): 50.1 °C
- solubility change mitosis (log2) (HeLa Kyoto [3]): -0.187
- thermal stability score (HeLa Kyoto [4]; [5]): -0.456
- thermal stability score (HeLa Kyoto [4]; cell cycle stage: mitosis): 0.655

Substance: MSGPVPSRARVYTDVNTHRPREYWDYESHVVEWGNQDDYQLVRKLGRGKYSEVFEAINITNNEKVVVKILKPVKKKKIKREIKILENLRGGPNIITLADIVKDPVSRTPALVFEHVNNTDFKQLYQTLTDYDIRFYMYEILKALDYCHSMGIMHRDVKPHNVMIDHEHRKLRLIDWGLAEFYHPGQEYNVRVASRYFKGPELLVDYQMYDYSLDMWSLGCMLASMIFRKEPFFHGHDNYDQLVRIAKVLGTEDLYDYIDKYNIELDPRFNDILGRHSRKRWERFVHSENQHLVSPEALDFLDKLLRYDHQSRLTAREAMEHPYFYTVVKDQARMGSSSMPGGSTPVSSANMMSGISSVPTPSPLGPLAGSPVIAAANPLGMPVPAAAGAQQ [CSNK2A1]
- solubility in G1/S (log2) (HeLa Kyoto [1]): -0.00675
- melting temperature (HeLa Kyoto [2]; cell cycle stage: G1/S): 51.5 °C
- melting temperature (HeLa Kyoto [2]; cell cycle stage: mitosis): 50.7 °C
- solubility change mitosis (log2) (HeLa Kyoto [3]): 0.0535
- thermal stability score (HeLa Kyoto [4]; [5]): 1.11
- thermal stability score (HeLa Kyoto [4]; cell cycle stage: mitosis): 1.31
